# Reference: US20180360932A1 (OPKO BIOLOGICS, published 2018)
# How the values were obtained:
# Test in all cases: cell-based or functional assay
# MOD-5014/TF complex = MOD-5014/TF complex (UniProt P13726)
# MOD-5000/TF complex = MOD-5000/TF complex (UniProt P08709)
# Factor X = Factor X (UniProt P00742)
# [1] = biological target: Recombinant human FVIIa (NovoSeven) (human) (UniProt P08709)
# [2] = biological target: MOD-5014 (FVIIa-CTP3, activated Factor VII-CTP-CTP-CTP) (human) (UniProt P08709)
# Factor X, sequence (P00742 41-488 limits assumed): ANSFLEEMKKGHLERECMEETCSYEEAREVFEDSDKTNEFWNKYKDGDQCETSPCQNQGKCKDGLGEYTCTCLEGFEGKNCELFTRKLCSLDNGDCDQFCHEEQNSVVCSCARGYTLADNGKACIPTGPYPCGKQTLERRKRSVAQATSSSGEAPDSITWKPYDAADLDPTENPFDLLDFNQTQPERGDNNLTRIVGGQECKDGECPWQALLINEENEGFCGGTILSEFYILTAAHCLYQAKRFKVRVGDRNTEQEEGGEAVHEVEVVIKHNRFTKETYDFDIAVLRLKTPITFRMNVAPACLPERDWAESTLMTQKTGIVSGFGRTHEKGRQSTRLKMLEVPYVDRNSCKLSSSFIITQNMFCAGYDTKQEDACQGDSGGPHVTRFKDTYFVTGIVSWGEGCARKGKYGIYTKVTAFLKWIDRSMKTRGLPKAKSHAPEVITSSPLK
substance,measurement,setting,value
Anti-thrombin (AT) (from UniProt P01008 33-464),K (rate constant of the loss of FVIIa/TF activity with AT 1 uM and heparin 5 U/mL),MOD-5014/TF complex,0.217 Min·^1
same,K (rate constant of the loss of FVIIa/TF activity with AT 1 uM and heparin 5 U/mL),MOD-5000/TF complex,0.354 Min·^1
NovoSeven (commercial recombinant human FVIIa) (from UniProt P08709 61-212; P08709 213-466) (enzyme),"O.D, FX activation (chromogenic), rFVIIa 0.0320 ng/ml",Factor X,0.138 O.D
same,"O.D, FX activation (chromogenic), rFVIIa 0.160 ng/ml",Factor X,0.178 O.D
same,"O.D, FX activation (chromogenic), rFVIIa 0.80 ng/ml",Factor X,0.303 O.D
same,"O.D, FX activation (chromogenic), rFVIIa 4.00 ng/ml",Factor X,0.352 O.D
same,"O.D, FX activation (chromogenic), rFVIIa 20.00 ng/ml",Factor X,0.365 O.D
same,"O.D, FX activation (chromogenic), rFVIIa 100.00 ng/ml",Factor X,0.363 O.D
Anti-thrombin III (AT III) (from UniProt P01008 33-464),"IC50 of anti-thrombin on FX activation (chromogenic), 0.7 ng/ml FVIIa, 1 U/µl heparin",[1],65.7 µg/mL
same,"IC50 of anti-thrombin on FX activation (chromogenic), 0.7 ng/ml FVIIa, 1 U/µl heparin",[2],49.6 µg/mL
